Results reported in patent US20210371505A1 (Regeneron, published 2021).

Molecular target: Hemagglutinin of A/Wisconsin/67/2005 (H3N2) overexpressed on 3T3 cells (Influenza A virus A/Wisconsin/67/2005 …)
Assay: cell-based or functional assay

B1: H1H14611N2 (antibody, V domains shown)
VH: EVQLVESGGGLVKPGGSLRLSCAASGFTFSGFSMNWVRQVPGKGLEWVSSISTSGNYMYYADSVKGRFTISRDNAKKSFSLQMNSLRAEDSAIYYCARGGGYNWNLFDYWGQGSLVTVSS
VL: EIVLTQSPGTLSLSPGERATLSCRASQSLNSNYLAWYQQKPGQAPRLLIYGASSRATGIPDRFSGSGSGTDFTLTITRLESEDFAVYYCQQYGNSPLTFGGGTKVEIK
- EC50, ADCC with human donor PBMCs (CytoTox-Glo): 0.146 nM
- EC50, FcγRIIIA activation in the ADCC-Glo reporter bioassay (Promega): 0.871 nM
